Residue numbers refer to the chain shown, from its start. Numbers in names are those of the source.
B1: A007901255, monovalent form (VHH)
VHH: DVQLVESGGGLVQPGGSLRLSCAASGFTFDDYAIGWFRQAPGEEREGVSSISSTYGLTYYADSVKGRFTISSDNSKNTVYLQMNSLRPEDTAVYYCAATPIGLIGLDAYEYDYWGQGTLVTVSS
notes: anti-c-MET Nanobody
B2: A007901260, monovalent form (VHH)
VHH: B1 VHH with T28A, E46L
notes: anti-c-MET Nanobody
B3: A007901256, monovalent form (VHH)
VHH: B1 VHH with T28A
notes: anti-c-MET Nanobody
B4: A007901259, monovalent form (VHH)
VHH: B1 VHH with E46L
notes: anti-c-MET Nanobody
B5: SEQ ID NO 80 (VHH)
VHH: EVQLVESGGGLVQPGGSLRLSCAASRSIGRLDRMGWYRHRPGEPRELVATITGGSSINYGDSVKGRFTISIDNSKNTVYLQMNSLRPEDTAVYYCNFNKYVTSRDTWGQGTLVQVGG
notes: T110Q, S112G, S113G
B6: SEQ ID NO 79 (VHH)
VHH: B5 VHH with Q114T, G116S, G117S
notes: C-terminal: GG
B7: SEQ ID NO 74 (VHH)
VHH: B5 VHH with Q114T, G116S, G117S
notes: C-terminal: G
B8: SEQ ID NO 76 (VHH)
VHH: B5 VHH with Q114T, G116S, G117S
notes: C-terminal: GGG
B9: SEQ ID NO 75 (VHH)
VHH: B5 VHH with Q114T, G116S, G117S
notes: C-terminal: AA
B10: SEQ ID NO 73 (VHH)
VHH: B5 VHH with Q114T
notes: C-terminal: G; S112G, S113G
B11: SEQ ID NO 89 (VHH)
VHH: B5 VHH with L11S, P14A
notes: L11S, P14A, T110Q, S112G, S113G
B12: SEQ ID NO 83 (VHH)
VHH: B5 VHH with T90A, Q114T, G116S, G117S
notes: T87A
B13: SEQ ID NO 82 (VHH)
VHH: B5 VHH with P87A, Q114T, G116S, G117S
notes: P84A
B14: SEQ ID NO 87 (VHH)
VHH: B5 VHH with L11S, Q114T
notes: L11S, S112G, S113G
B15: SEQ ID NO 86 (VHH)
VHH: B5 VHH with L11S, G116S, G117S
notes: L11S, T110Q
B16: SEQ ID NO 88 (VHH)
VHH: B5 VHH with L11S, G116S, G117S
notes: C-terminal: A; L11S, T110Q
B17: SEQ ID NO 85 (VHH)
VHH: B5 VHH with L11S
notes: L11S, T110Q, S112G, S113G
B18: SEQ ID NO 81 (VHH)
VHH: B5 VHH with L11V, Q114T, G116S, G117S
notes: L11V
B19: SEQ ID NO 77 (VHH)
VHH: B5 VHH with Q114T, G116S, G117S
notes: C-terminal: A
B20: SEQ ID NO 84 (VHH)
VHH: B5 VHH with Q114T, G117S
notes: S112G

Key:
cMet/Fc = target: T1, cMet/Fc (UniProt P08581 25-932); test: HGF-competition Alphascreen, monovalent form
T1 construct: not shown: Fc part not specified
T1 sequence (P08581 25-932): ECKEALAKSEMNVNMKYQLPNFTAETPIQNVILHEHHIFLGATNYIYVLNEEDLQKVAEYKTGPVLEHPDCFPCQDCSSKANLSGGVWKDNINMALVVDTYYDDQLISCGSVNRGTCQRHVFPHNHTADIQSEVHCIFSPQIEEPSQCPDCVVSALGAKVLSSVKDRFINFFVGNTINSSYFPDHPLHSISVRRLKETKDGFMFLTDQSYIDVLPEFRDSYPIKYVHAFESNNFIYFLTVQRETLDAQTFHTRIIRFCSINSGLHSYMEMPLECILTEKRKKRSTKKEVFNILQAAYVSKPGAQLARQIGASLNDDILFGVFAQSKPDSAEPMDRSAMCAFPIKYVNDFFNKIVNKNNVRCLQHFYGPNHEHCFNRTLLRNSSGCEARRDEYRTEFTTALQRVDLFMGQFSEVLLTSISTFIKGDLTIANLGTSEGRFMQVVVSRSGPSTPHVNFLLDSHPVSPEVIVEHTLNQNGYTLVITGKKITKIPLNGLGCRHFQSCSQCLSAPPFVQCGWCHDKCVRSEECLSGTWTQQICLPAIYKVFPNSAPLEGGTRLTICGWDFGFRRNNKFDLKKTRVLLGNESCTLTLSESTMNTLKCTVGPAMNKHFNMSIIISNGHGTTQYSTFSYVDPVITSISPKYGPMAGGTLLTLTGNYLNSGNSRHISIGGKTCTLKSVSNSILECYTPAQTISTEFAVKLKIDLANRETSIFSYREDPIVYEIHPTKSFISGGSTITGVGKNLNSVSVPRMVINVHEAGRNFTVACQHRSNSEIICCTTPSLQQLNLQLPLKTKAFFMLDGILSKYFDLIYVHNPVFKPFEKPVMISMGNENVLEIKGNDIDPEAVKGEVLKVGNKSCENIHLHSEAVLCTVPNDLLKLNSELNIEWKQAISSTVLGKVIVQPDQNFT

[1] = target: T2, purified interference factor(s) from serum of Donor A; test: Biacore, immobilized interference factor
T2 construct: text names Donors 8, 19 and 30

[2] = target: T3, purified interference factor(s) from serum of Donor C; test: Biacore, immobilized interference factor
T3 construct: text names Donors 8, 19 and 30

[3] = target: T4, purified interference factor(s) from serum of Donor B; test: Biacore, immobilized interference factor
T4 construct: text names Donors 8, 19 and 30

[4] = target: T5, monoclonal antibody 21-4-3; test: Biacore, captured 21-4-3
T5 construct: mouse IgG1 heavy chain, kappa light chain; also called mAb21-4-3; produced by hybridoma ABH0015 (LMBP-9680-CB)
Experimental: Binding measurements were performed using a Biacore T100 using a CM5 T120416 sensor chip, with running buffer HBS-EP+, 25° C. […] The anti-mouse IgG used was a polyclonal rabbit anti-mouse IgG antibodies reacting with all IgG subclasses, IgA and IgM (GE Healthcare; Cat#BR-1008-38; Lot#10056316). Immobilisation of the anti-mouse IgG was performed using manual amine coupling using a 7 minute injection of EDC/NHS for activation and a 7 minute injection of 1M ethanolamine HCl pH 8.5 for deactivation (Biacore, amine coupling kit).

Binder	IC50 (cMet/Fc)	binding vs Reference Sequence (=100%) [1]	binding vs Reference Sequence (=100%) [2]	binding vs Reference Sequence (=100%) [3]	binding vs Reference Sequence (=100%) [4]
B1	0.091 nM	–	–	–	–
B2	0.035 nM	–	–	–	–
B3	0.048 nM	–	–	–	–
B4	0.043 nM	–	–	–	–
B5	–	65%	58%	5%	51%
B6	–	1%	13%	17%	2%
B7	–	4%	33%	41%	1%
B8	–	2%	20%	17%	2%
B9	–	1%	16%	11%	1%
B10	–	6%	9%	8%	1%
B11	–	14%	17%	5%	2%
B12	–	56%	61%	73%	79%
B13	–	96%	100%	80%	56%
B14	–	51%	39%	5%	41%
B15	–	76%	86%	6%	64%
B16	–	1%	11%	5%	1%
B17	–	46%	42%	5%	32%
B18	–	94%	89%	50%	75%
B19	–	2%	13%	12%	1%
B20	–	84%	83%	50%	91%

Source: patent US20140205597A1 (published 2014)
